The values that follow come from article PMC6047671.

This experiment addresses human catalytic domain of MMP-14 (human).

Sequence of human N-terminal domain of tissue inhibitor of metalloproteinase-2 (domain or fragment) (P16035 27-220): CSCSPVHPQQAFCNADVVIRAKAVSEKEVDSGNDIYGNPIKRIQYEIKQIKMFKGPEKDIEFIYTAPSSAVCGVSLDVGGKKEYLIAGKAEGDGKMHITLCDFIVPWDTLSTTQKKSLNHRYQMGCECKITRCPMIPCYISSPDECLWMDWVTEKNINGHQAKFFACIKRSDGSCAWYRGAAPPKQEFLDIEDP

Consider “human N-terminal domain of tissue inhibitor of metalloproteinase-2 (domain or fragment)”, for which the IC50 of inhibition of hydrolysis of the FRET peptide substrate M-2350 (1 nM human cdMMP-14, 1 μM substrate) came out at 3 nM.
